Laboratory results: patent publication US20210395761, “SERINE RECOMBINASES MEDIATING STABLE INTEGRATION INTO PLANT GENOMES” (GREENVENUS, LLC, published 2021)

B1: N. benthamiana pseudo-attB Niben101Scf13522 (dsDNA)
DNA 1: GGATAAGGGAGGGTTTAGATATTTTGAAAGGGTTAAGGGGTAAAATCACTAAGGGGGAATTAACAATGCACACTAGGGTTGCCTTAAAAGTGCCTATATA
DNA 2: TATATAGGCACTTTTAAGGCAACCCTAGTGTGCATTGTTAATTCCCCCTTAGTGATTTTACCCCTTAACCCTTTCAAAATATCTAAACCCTCCCTTATCC
B2: N. benthamiana pseudo-attB Niben101Scf04030 (dsDNA)
DNA 1: TTGCTGTCTTTTCATACTTTTCTAAGTTGAAAGTACTTGAAAGTACGACCAAGAAAATGATTATATTTGACACAGAAAATGCAAGGTACTTTGAATGTGA
DNA 2: TCACATTCAAAGTACCTTGCATTTTCTGTGTCAAATATAATCATTTTCTTGGTCGTACTTTCAAGTACTTTCAACTTAGAAAAGTATGAAAAGACAGCAA
B3: lettuce pseudo-attB 115327723 (dsDNA)
DNA 1: TATTTGTGATGTGACATGACAAATAATGATGTTACAATATTATGTACCTCTAAATGAGATCTAGCATTGAAGATTGCATGAATATTCTTGAGTGTGTTATT
DNA 2: AATAACACACTCAAGAATATTCATGCAATCTTCAATGCTAGATCTCATTTAGAGGTACATAATATTGTAACATCATTATTTGTCATGTCACATCACAAATA
B4: N. benthamiana pseudo-attB Niben101Scf00773 (dsDNA)
DNA 1: ACATGGAGCAATGATGGAGAAAAATGGTGGTCATTACTACTGAAGTTGTCAAAGCAAAGCTGTCAGGTAACATCAAATGATCTCTAAATCAATTAGTCTT
DNA 2: AAGACTAATTGATTTAGAGATCATTTGATGTTACCTGACAGCTTTGCTTTGACAACTTCAGTAGTAATGACCACCATTTTTCTCCATCATTGCTCCATGT
B5: lettuce pseudo-attB 328302882 (dsDNA)
DNA 1: TCCGTCACAAATTGCATCACTACGACTAAGATCTTCATCAATGATTCTATTAAGGAGATTCTTACATTGAAGGAGAAGTTACATAAATTCTTTATTATTT
DNA 2: AAATAATAAAGAATTTATGTAACTTCTCCTTCAATGTAAGAATCTCCTTAATAGAATCATTGATGAAGATCTTAGTCGTAGTGATGCAATTTGTGACGGA
B6: N. benthamiana pseudo-attB Niben101Scf04574 (dsDNA)
DNA 1: TAGGCTTACATTCCTGATGTACTATCCCATTATGCAATAATAAAGATGCAAAATAGGAAATGTCATTGACAGCTACGAGATCTATCTTTATTGATTCACT
DNA 2: AGTGAATCAATAAAGATAGATCTCGTAGCTGTCAATGACATTTCCTATTTTGCATCTTTATTATTGCATAATGGGATAGTACATCAGGAATGTAAGCCTA
B7: N. benthamiana pseudo-attB Niben101Scf00732 (dsDNA)
DNA 1: not shown
DNA 2: not shown
B8: lettuce pseudo-attB 411877132 (dsDNA)
DNA 1: ATAAGTTTAGATCTTATTGAACTAGGCTTGTGGTGCTTGTTTAAGGCCATAAATCGCCTTATTCAAGCGACAAAAATGAGACGAATAGGTGGAGTCTTCA
DNA 2: TGAAGACTCCACCTATTCGTCTCATTTTTGTCGCTTGAATAAGGCGATTTATGGCCTTAAACAAGCACCACAAGCCTAGTTCAATAAGATCTAAACTTAT
B9: N. benthamiana pseudo-attB Niben101Scf11415 (dsDNA)
DNA 1: CTAATATACATTGACAGTGTTAAAAAAAATCTATTAACGACAATATAGAGAAGAGAGTACTTACATGAATGACGTCTACTTTGACTCCGTCAATTCCAAC
DNA 2: GTTGGAATTGACGGAGTCAAAGTAGACGTCATTCATGTAAGTACTCTCTTCTCTATATTGTCGTTAATAGATTTTTTTTAACACTGTCAATGTATATTAG
B10: lettuce pseudo-attB 13364626 (dsDNA)
DNA 1: TGAATTTCTTATGAAGGTTACAACGCATCGTGGATTACAAGCAATTCTGTTTAGTCTGTTATGTTGTTGAATTTGAATGGATCTTGTCCTCAGTTACTCA
DNA 2: TGAGTAACTGAGGACAAGATCCATTCAAATTCAACAACATAACAGACTAAACAGAATTGCTTGTAATCCACGATGCGTTGTAACCTTCATAAGAAATTCA
B11: lettuce pseudo-attB 310607752 (dsDNA)
DNA 1: CACAAAAAATTGACCATTTCTAGCAACTTCCTATGATACGTTGATACTTTCTAAACATTAATTACAATGACAAAATGAAGTCTACCAAATCATTCATAGA
DNA 2: TCTATGAATGATTTGGTAGACTTCATTTTGTCATTGTAATTAATGTTTAGAAAGTATCAACGTATCATAGGAAGTTGCTAGAAATGGTCAATTTTTTGTG
B12: lettuce pseudo-attB 207599470 (dsDNA)
DNA 1: CAATGGTGAATATAGTCCGGCGACCAACTCTGTCCACTATCAGCAACGATAAAAAGGTCATGCTAAGACCCACAAGCCCAGTCACCACTGCTGACATAAG
DNA 2: CTTATGTCAGCAGTGGTGACTGGGCTTGTGGGTCTTAGCATGACCTTTTTATCGTTGCTGATAGTGGACAGAGTTGGTCGCCGGACTATATTCACCATTG

Columns and labels:
[1] = target: T1, SPβc2 serine recombinase (SPβc2-HA-NLS) (Bacillus subtilis phage SPβc2, UniProt O32006 SEQ:1-545); assay: cell_activity; partner attP vector; conditions: tags: C-terminal HA and SV40 NLS
T1 sequence (O32006 whole entry): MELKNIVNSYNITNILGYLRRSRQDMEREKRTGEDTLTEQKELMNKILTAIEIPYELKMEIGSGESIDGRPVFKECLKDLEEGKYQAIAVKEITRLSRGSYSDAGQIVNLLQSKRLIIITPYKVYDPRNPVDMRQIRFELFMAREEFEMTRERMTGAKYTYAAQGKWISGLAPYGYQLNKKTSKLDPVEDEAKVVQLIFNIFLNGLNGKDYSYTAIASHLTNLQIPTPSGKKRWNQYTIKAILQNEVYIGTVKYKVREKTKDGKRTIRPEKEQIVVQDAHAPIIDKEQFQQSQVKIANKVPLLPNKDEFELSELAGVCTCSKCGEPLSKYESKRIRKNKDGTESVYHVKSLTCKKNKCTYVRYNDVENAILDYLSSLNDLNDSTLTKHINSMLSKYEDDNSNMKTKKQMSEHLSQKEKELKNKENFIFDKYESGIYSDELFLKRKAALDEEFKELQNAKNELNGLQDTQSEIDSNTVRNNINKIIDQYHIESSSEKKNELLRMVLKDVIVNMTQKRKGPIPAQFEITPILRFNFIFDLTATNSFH
Experimental: Wild tobacco relative Nicotiana benthamiana (Benthi) events were generated through co-transfection of a SPβc2 expression vector (or control filler vector: CAT) plus a target integration vector containing GFP, NptII, and a SPβc2 attachment site (attP, attB, or site-less control). Colonies were regenerated in the presence of a kanamycin gradient to detect NptII and the presence of GFP was determined through illumination with a blue “biolight” together with an appropriate filter (FIG. 1). […] Enhanced regeneration of transgenic colonies varied between 10 and 65 fold and was dependent on the Kanamycin concentration used for selection. […] Very few GFP-positive kanamycin-resistant colonies arose from the attB/SPβc2 or Siteless/SPβc2 conditions, indicating a dependence on the attP site for interaction with plant pseudo-attB sites. […] A total of 126 plants from 91 unique calli events were regenerated, transplanted into soil, and carried forward to seed collection (Table 7).
To determine whether any of the sites identified by GenomeWalker were preferentially utilized for integration by the SPβc2 recombinase, 64 attP/SPβc2 regenerated events were screened by end-point PCR for amplification of the left (35S side) gDNA:insert border.

[2] = target: T1, SPβc2 serine recombinase (SPβc2-HA-NLS); assay: cell_activity; partner attP vector; conditions: tags: C-terminal HA and SV40 NLS; remark: listed apart in the source
Text: In addition to the 20 GFP-positive kanamycin-resistant regenerated events, 35 GFP-positive kanamycin-resistant calli were also sampled for gDNA extraction and insertion analysis. These events were not analyzed by qPCR for NPT-II copy number due to the likelihood of circular non-integrated plasmid being present in the callus tissue. The 55 unique GFP-positive kanamycin-resistant attP/SPβc2 events were screened by end-point PCR for the right gDNA:insert junction (SpecR side) for each of the 7 previously identified integration sites. Four of the 7 insertion sites were identified in multiple unique events with one of the integration sites found in 8 events including the 2 events in which it was identified by next-gen sequencing (Table 13). Sanger sequencing of amplicons from both left and right gDNA:insert borders for 3 of the events with integrations in site 7493878 identified a lbp difference in the insert:gDNA recombination site compared to the originally identified borders (FIG. 20 C-E). As was done in Benthi, the population was also screened for presence of the recombinase expression construct (ID363); it was found in 2 out of the 20 regenerated attP/SPβc2 events (data not shown).

Binder	activity [1] [integration events]	activity [2] [integration events]
B1	2	–
B2	2	–
B3	–	1
B4	1	–
B5	–	2
B6	1	–
B7	1	–
B8	–	2
B9	1	–
B10	–	1
B11	–	1
B12	–	7
